Where a chain is given by its changes, count along the chain named.

One may read the Kd as the equilibrium constant for the complex coming apart. A high value points to lower affinity.

This experiment concerns the target Gab2 608-620 (Homo sapiens), Q9UQC2. The experiment can be described thus: flow.

B1: SHP2 N-SH2, Q06124 (protein)
chain: WFHPNITGVEAENLLLTRGVDGSFLARPSKSNPGDFALSVRRNGAVTHIKIQNTGDYYDLYGGEKFATLAELVQYYMEHHGQLKEKNGDVIELKYPL
Take B1: the dissociation constant (Kd) worked out at 1.7 nM.

B2: SHP2 N-SH2, Q06124 (protein)
chain: B1 chain with A37S
On to B2, for which the dissociation constant Kd was determined as 5.3 nM.
